Numbering of substitutions follows the chain as printed.
T1: cynomolgus sclerostin (cynomolgus monkey)
T1 chain: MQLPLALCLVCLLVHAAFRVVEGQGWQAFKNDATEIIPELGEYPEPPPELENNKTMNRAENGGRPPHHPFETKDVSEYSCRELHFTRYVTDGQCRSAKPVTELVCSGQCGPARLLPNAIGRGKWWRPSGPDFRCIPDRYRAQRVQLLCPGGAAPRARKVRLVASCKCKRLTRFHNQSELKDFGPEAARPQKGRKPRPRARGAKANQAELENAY

T2: human sclerostin (human)
T2 chain: T1 chain with A16T, Q93P, A152E, P184T, G201S

T3: mouse sclerostin (mouse)
T3 chain: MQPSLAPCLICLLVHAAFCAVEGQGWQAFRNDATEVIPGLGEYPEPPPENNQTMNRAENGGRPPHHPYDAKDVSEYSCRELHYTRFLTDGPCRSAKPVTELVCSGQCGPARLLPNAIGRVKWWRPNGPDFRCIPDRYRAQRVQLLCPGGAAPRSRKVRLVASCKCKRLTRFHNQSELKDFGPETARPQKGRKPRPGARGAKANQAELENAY

T4: rat sclerostin (rat)
T4 chain: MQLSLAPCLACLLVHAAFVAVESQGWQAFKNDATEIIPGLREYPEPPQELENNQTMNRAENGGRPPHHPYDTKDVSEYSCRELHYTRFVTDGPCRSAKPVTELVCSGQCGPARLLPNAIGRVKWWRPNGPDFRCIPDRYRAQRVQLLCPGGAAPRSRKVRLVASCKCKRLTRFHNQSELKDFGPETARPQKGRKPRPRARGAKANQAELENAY

B1: amH848/bsH656/abL152 (antibody)
chain 1: EVQLVQSGAEVKKPGASVKVSCKASGYTFTSYNMHWVRQAPGKGLEWMGEIMPHSGRYGLKQKFKGRVTMTRDTSISTAYMELSRLRSDDTAVYYCARLEYSEIYDDWYFDVWGQGTTVTVSS
chain 2: DIQMTQSPSSLSASVGDRVTITCRASEGIHDALAWYQQKPGKAPKLLIYWASTLESGVPSRFSGSGSGTDFTLTISSLQPEDFATYYCQQGDTLPYTFGGGTKVEIK
chain 3: QVQLVQSGAEVKKPGASVKVSCKVSGYTLTHTFMHWVRQAPGKGLEWMGWSDPEIGDTEYASKFQGRVTMTEDTSTDTAYMELSSLRSEDTAVYYCATGDTTYKFDYWGQGTLVTVSS
chain 4: B1 chain 2
B2: amH848/bsH638/abL152 (antibody)
chain 1: B1 chain 1
chain 2: B1 chain 2
chain 3: B1 chain 3 with T58H
chain 4: B1 chain 2
B3: amH852/bsH638/abL152 (antibody)
chain 1: B1 chain 1 with S31D, R72T, I76T, S84R, R85S
chain 2: B1 chain 2
chain 3: B1 chain 3 with T58H
chain 4: B1 chain 2
B4: amH852/bsH656/abL152 (antibody)
chain 1: B1 chain 1 with S31D, R72T, I76T, S84R, R85S
chain 2: B1 chain 2
chain 3: B1 chain 3
chain 4: B1 chain 2
B5: bsH638/abL152 (antibody, V domains shown)
VH: B1 chain 3 with T58H
VL: B1 chain 2
B6: bsH656/abL152 (antibody, V domains shown)
VH: B1 chain 3
VL: B1 chain 2
B7: amH852/abL152 (antibody, V domains shown)
VH: B1 chain 1 with S31D, R72T, I76T, S84R, R85S
VL: B1 chain 2
B8: amH848/abL152 (antibody, V domains shown)
VH: B1 chain 1
VL: B1 chain 2
B9: mabA_NpH1 (antibody, V domains shown)
VH: EVQLVQSGAEVKKPGASVKVSCKASGYTFTDYNMHWVRQAPGQGLEWMGEINPNSGGAGYNQKFKGRVTMTTDTSTSTAYMELRSLRSDDTAVYYCARLGYDDIYDDWYFHVWGQGTTVTVSS
VL: B1 chain 2 with E27Q, G28D, H30S, D31N, A32Y, A34N, W50H, A51T, T53R, E55L
B10: mabA_NpH2 (antibody, V domains shown)
VH: B9 VH with H111D
VL: B1 chain 2 with E27Q, G28D, H30S, D31N, A32Y, A34N, W50H, A51T, T53R, E55L
B11: mabA (antibody, V domains shown)
VH: B9 VH with H111D
VL: B1 chain 2 with E27Q, G28D, H30S, D31N, A32Y, A34N, W50Y, A51T, T53R, E55L
B12: mabB (antibody, V domains shown)
VH: B1 chain 3 with Y27F, T28P, L29I, T30K, H31D, M34Q, Y107F, L113T
VL: DIQMTQSPSSLSASVGDRVTITCKASQDVHTAVAWYQQKPGKAPKLLIYWASTRWTGVPSRFSGSGSGTDFTLTISSLQPEDFATYYCQQYSDYPWTFGGGTKVEIK
B13: mabA_NpH3 (antibody, V domains shown)
VH: B9 VH with H111D
VL: DIQMTQSPSSLSASVGDRVTITCRASQDISNYLNWYQQKPGKAPKLLIYYHSRLLSGVPSRFSGSGSGTDFTLTISSLQPEDFATYYCHQGDTLPYTFGGGTKVEIK
B14: mabA_pH4 (antibody, V domains shown)
VH: B9 VH with N54H, G57H, G100H, Y105H, H111D
VL: B13 VL with Q27H, S30H, H51T, H89Q
B15: mabB_pH1 (antibody, V domains shown)
VH: B1 chain 3 with Y27F, T28P, L29I, T30K, T32H, M34Q, Y107F, L113T
VL: B12 VL with S92H
B16: mabB_pH5 (antibody, V domains shown)
VH: B1 chain 3 with Y27F, T28P, L29I, T30K, T32H, M34Q, D100H, Y107F, L113T
VL: B12 VL with P95H
B17: mabB_pH4 (antibody, V domains shown)
VH: B1 chain 3 with Y27F, T28P, L29I, T30K, T32H, M34Q, Y107F, L113T
VL: B12 VL with P95H
B18: mabB//mabA_pH1 (antibody)
chain 1: B1 chain 3 with Y27F, T28P, L29I, T30K, H31D, M34Q, Y107F, L113T
chain 2: B12 VL
chain 3: B9 VH with G57H, G100H, H111D
chain 4: B13 VL with Q27H, H51T, H89Q
B19: mabB//mabA_pH3 (antibody)
chain 1: B1 chain 3 with Y27F, T28P, L29I, T30K, H31D, M34Q, Y107F, L113T
chain 2: B12 VL
chain 3: B9 VH with N54H, G57H, G100H, Y105H, H111D
chain 4: B13 VL with Q27H, H51T, H89Q
B20: mabB//mabA_pH2 (antibody)
chain 1: B1 chain 3 with Y27F, T28P, L29I, T30K, H31D, M34Q, Y107F, L113T
chain 2: B12 VL
chain 3: B9 VH with G57H, G100H, D103H, H111D
chain 4: B13 VL with Q27H, H51T, H89Q

Biological target: T1, cynomolgus sclerostin
Assay: SPR, pH 7.4

Point of comparison: B6, koff 0.0108 s⁻¹. Against it:
- B1 — 18-fold lower, 0.000606 s⁻¹
- B2 — 18-fold lower, 0.000606 s⁻¹
- B3 — 28-fold lower, 0.000387 s⁻¹
- B4 — 27-fold lower, 0.000405 s⁻¹
- B5 — within 1.5-fold, 0.0107 s⁻¹
- B7 — 5.7-fold lower, 0.0019 s⁻¹
- B8 — within 1.5-fold, 0.00854 s⁻¹

Biological target: T2, human sclerostin
Assay: SPR, pH 7.4

Point of comparison: B2, koff 0.000596 s⁻¹. Against it:
- B1 — within 1.5-fold, 0.000515 s⁻¹
- B3 — within 1.5-fold, 0.000418 s⁻¹
- B4 — within 1.5-fold, 0.000419 s⁻¹
- B5 — 16-fold higher, 0.0093 s⁻¹
- B6 — 17-fold higher, 0.0104 s⁻¹
- B7 — 4.3-fold higher, 0.00257 s⁻¹
- B8 — 16-fold higher, 0.00946 s⁻¹

Biological target: T1, cynomolgus sclerostin
Assay: SPR, pH 5.8, 37C

Point of comparison: B11, Kd 1400 pM. Against it:
- B9 — 3.1-fold lower, 459 pM
- B10 — 2.2-fold lower, 627 pM

Biological target: T2, human sclerostin
Assay: SPR, pH 5.8, 37C

Point of comparison: B11, Kd 1440 pM. Against it:
- B9 — 3.3-fold lower, 435 pM
- B10 — 2.1-fold lower, 690 pM

Biological target: T1, cynomolgus sclerostin
Assay: SPR, pH 7.4, 37C

Point of comparison: B10, Kd 280 pM. Against it:
- B9 — within 1.5-fold, 189 pM
- B11 — 3.7-fold lower, 75.3 pM

Biological target: T3, mouse sclerostin
Assay: SPR, pH 5.8, 37C

Point of comparison: B10, Kd 0.0168 pM. Against it:
- B9 — 30000-fold higher, 503 pM
- B12 — 15000-fold higher, 260 pM

Biological target: T4, rat sclerostin
Assay: SPR, pH 5.8, 37C

Point of comparison: B9, Kd 292 pM. Against it:
- B10 — 4000-fold lower, 0.0736 pM
- B11 — 95000-fold lower, 0.00307 pM
- B13 — 6.4-fold lower, 45.4 pM

Biological target: T2, human sclerostin
Assay: SPR, pH 7.4, 37C

Point of comparison: B11, Kd 80 pM. Against it:
- B9 — 2.4-fold higher, 193 pM
- B10 — 4-fold higher, 323 pM

Biological target: T3, mouse sclerostin
Assay: SPR, pH 7.4, 37C

Point of comparison: B14, Kd 1730 pM. Against it:
- B9 — 8.5-fold lower, 204 pM
- B10 — 310-fold lower, 5.57 pM
- B11 — far lower, 0.00302 pM
- B15 — 13-fold lower, 138 pM
- B16 — 2.9-fold lower, 589 pM
- B17 — 2.2-fold lower, 782 pM
- B12 — 120-fold lower, 14.1 pM

Biological target: T4, rat sclerostin
Assay: SPR, pH 7.4, 37C

Point of comparison: B11, Kd 0.0938 pM. Against it:
- B9 — 880-fold higher, 82.6 pM
- B10 — 70-fold higher, 6.61 pM
- B13 — 450-fold higher, 42.6 pM

Biological target: T1, cynomolgus sclerostin
Assay: SPR, pH 7.4 to 5.8

Point of comparison: B2, koff 0.227 s⁻¹. Against it:
- B1 — 1.6-fold higher, 0.374 s⁻¹
- B3 — 3.8-fold lower, 0.0598 s⁻¹
- B4 — 2-fold lower, 0.116 s⁻¹
- B7 — 2.1-fold lower, 0.107 s⁻¹

Biological target: T2, human sclerostin
Assay: SPR, pH 7.4 to 5.8

Point of comparison: B3, koff 0.028 s⁻¹. Against it:
- B1 — 7.9-fold higher, 0.222 s⁻¹
- B2 — 3.6-fold higher, 0.1 s⁻¹
- B4 — 2.1-fold higher, 0.0593 s⁻¹
- B7 — 3.1-fold higher, 0.0882 s⁻¹

Biological target: T3, mouse sclerostin
Assay: SPR, pH 7.4 to 5.8, 37C

Point of comparison: B20, koff 0.0186 s⁻¹. Against it:
- B14 — 2.2-fold higher, 0.0418 s⁻¹
- B18 — 1.9-fold higher, 0.0347 s⁻¹
- B19 — 2.8-fold higher, 0.0516 s⁻¹
- B15 — within 1.5-fold, 0.0206 s⁻¹
